The source of these data is the supplement of paper PMC9112550, “Optimization of the antimicrobial peptide Bac7 by deep mutational scanning” (BMC Biology, 2022).
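Further: peptides expressed intracellularly from a pBAD plasmid library in pooled LB shake-flask culture, induced with 0.3% L-arabinose, DNA abundance read by NGS, three biological replicates, DESeq2 with apeglm shrinkage.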

For this series, the system named is Escherichia coli TOP10. The series is described as follows: shrunken log2 fold change of peptide-encoding DNA abundance (4.5 h post-induction vs induction); higher = less antimicrobial activity (less host growth inhibition). Conditions: time post-induction: 4.5 h; library: site-saturation at positions 5, 18, 19, 20.
With RRIRIRPPRLPRPRPRPDSDPRP, the “shrunken log2 fold change” value was -0.0273. Regarding RRIRRRPPRLPRPRPRPGAGPRP, the “shrunken log2 fold change” value was 0.475. The value for RRIRPRPPRLPRPRPRPSAAPRP was 0.487; that for RRIRARPPRLPRPRPRPMEKPRP was -0.00226; that for RRIRCRPPRLPRPRPRPYPHPRP was -0.438. The result for RRIRQRPPRLPRPRPRPMIDPRP reads -0.517. Take RRIRPRPPRLPRPRPRPLDLPRP: the “shrunken log2 fold change” value was -0.102. For the sequence RRIRKRPPRLPRPRPRPVIYPRP, the “shrunken log2 fold change” value was -0.0353. Consider RRIRFRPPRLPRPRPRPGTEPRP, for which the “shrunken log2 fold change” value was determined as 0.0589.

For the sequence RRIRARPPRLPRPRPRPANNPRP, the “shrunken log2 fold change” value was -0.0617. The result for RRIRKRPPRLPRPRPRPGVRPRP reads 1.16. In the case of RRIRPRPPRLPRPRPRPRACPRP, the “shrunken log2 fold change” value was found to be 0.456. The value for RRIRARPPRLPRPRPRPRCWPRP was 0.601; that for RRIRHRPPRLPRPRPRPMMCPRP was -0.0874. Regarding RRIRIRPPRLPRPRPRPPYWPRP, the “shrunken log2 fold change” value was -0.00803. The value for RRIRTRPPRLPRPRPRPSHTPRP was -0.0162; that for RRIRLRPPRLPRPRPRPLCYPRP was -0.15; that for RRIRIRPPRLPRPRPRPTCLPRP was -0.0168.

On to RRIRYRPPRLPRPRPRPRASPRP, for which the “shrunken log2 fold change” value is -0.412. As to RRIRNRPPRLPRPRPRPIYLPRP, the “shrunken log2 fold change” value was -0.376.

Take RRIRRRPPRLPRPRPRPAIIPRP: the “shrunken log2 fold change” value was -0.115. The value for RRIRWRPPRLPRPRPRPKNLPRP was 0.0793. On to RRIRSRPPRLPRPRPRPMWPPRP, for which the “shrunken log2 fold change” value came out at 0.447. For RRIRRRPPRLPRPRPRPEQLPRP, the “shrunken log2 fold change” value is 0.203. Turning to RRIRRRPPRLPRPRPRPCCGPRP, the “shrunken log2 fold change” value amounted to 0.0161. RRIRMRPPRLPRPRPRPTNRPRP: the “shrunken log2 fold change” value was 0.282. The result for RRIRPRPPRLPRPRPRPKEFPRP reads -0.0187; that for RRIRRRPPRLPRPRPRPERLPRP, 0.474; that for RRIRARPPRLPRPRPRPEMKPRP, 3.7.

As for RRIRERPPRLPRPRPRPFEGPRP, the “shrunken log2 fold change” value was -0.105.

Regarding RRIRCRPPRLPRPRPRPRWNPRP, the “shrunken log2 fold change” value was 2.15. Consider RRIRIRPPRLPRPRPRPTAWPRP, for which the “shrunken log2 fold change” value stood at 0.152. On to RRIRTRPPRLPRPRPRPGVKPRP, for which the “shrunken log2 fold change” value was found to be 0.14.

For the sequence RRIRVRPPRLPRPRPRPFSKPRP, the “shrunken log2 fold change” value is -0.138. As for RRIRWRPPRLPRPRPRPFTFPRP, the “shrunken log2 fold change” value was -0.326.

Take RRIRPRPPRLPRPRPRPQHVPRP: the “shrunken log2 fold change” value stood at 0.00743. The result for RRIRGRPPRLPRPRPRPPVHPRP reads 0.644; that for RRIRERPPRLPRPRPRPQLAPRP, 0.00697. Turning to RRIRLRPPRLPRPRPRPAYGPRP, the “shrunken log2 fold change” value was -0.0437.

Turning to RRIRVRPPRLPRPRPRPTTPPRP, the “shrunken log2 fold change” value was found to be 0.347.

In the case of RRIRIRPPRLPRPRPRPCYIPRP, the “shrunken log2 fold change” value is -0.27. The value for RRIRWRPPRLPRPRPRPCATPRP was 0.183; that for RRIRTRPPRLPRPRPRPICPPRP was -0.0534; that for RRIRRRPPRLPRPRPRPVEVPRP was 0.057. For the sequence RRIRGRPPRLPRPRPRPVNGPRP, the “shrunken log2 fold change” value was -0.0658. The result for RRIRWRPPRLPRPRPRPYVEPRP reads -0.446; that for RRIRIRPPRLPRPRPRPVILPRP, -0.423; that for RRIRYRPPRLPRPRPRPDDLPRP, -0.0432.

Take RRIRQRPPRLPRPRPRPFVKPRP: the “shrunken log2 fold change” value is -0.234. The value for RRIRFRPPRLPRPRPRPYLDPRP was -0.26; that for RRIRERPPRLPRPRPRPGVRPRP was 0.125; that for RRIRRRPPRLPRPRPRPYEIPRP was -0.39. The value for RRIRCRPPRLPRPRPRPWKAPRP was 0.0231; that for RRIRARPPRLPRPRPRPWQSPRP was 0.183; that for RRIRKRPPRLPRPRPRPMASPRP was 0.55. The result for RRIRSRPPRLPRPRPRPCIFPRP reads -0.471.

With RRIRMRPPRLPRPRPRPLSFPRP, the “shrunken log2 fold change” value is 0.102.

For the sequence RRIRKRPPRLPRPRPRPQFSPRP, the “shrunken log2 fold change” value was 0.0164.

As to RRIRWRPPRLPRPRPRPMSLPRP, the “shrunken log2 fold change” value was -0.0247. The result for RRIRFRPPRLPRPRPRPNRVPRP reads -0.0261.

Take RRIRVRPPRLPRPRPRPWDAPRP: the “shrunken log2 fold change” value is -0.0951. The value for RRIRKRPPRLPRPRPRPRICPRP was 0.0539.

As to RRIRYRPPRLPRPRPRPCLFPRP, the “shrunken log2 fold change” value was -0.931. Consider RRIRWRPPRLPRPRPRPCCWPRP, for which the “shrunken log2 fold change” value is 0.438.

RRIRFRPPRLPRPRPRPGCIPRP: the “shrunken log2 fold change” value is -0.241. Take RRIRIRPPRLPRPRPRPLKFPRP: the “shrunken log2 fold change” value is -0.373. In the case of RRIRERPPRLPRPRPRPMVAPRP, the “shrunken log2 fold change” value is 0.138.

RRIRMRPPRLPRPRPRPKEWPRP: the “shrunken log2 fold change” value came to 0.0859. As to RRIRTRPPRLPRPRPRPIHYPRP, the “shrunken log2 fold change” value was -0.356.

Take RRIRARPPRLPRPRPRPHDLPRP: the “shrunken log2 fold change” value worked out at 0.084. The value for RRIRYRPPRLPRPRPRPPLNPRP was -0.228; that for RRIRQRPPRLPRPRPRPKRVPRP was -0.154; that for RRIRLRPPRLPRPRPRPTSTPRP was -0.194. In the case of RRIRSRPPRLPRPRPRPGFPPRP, the “shrunken log2 fold change” value is -0.00277.

Regarding RRIRKRPPRLPRPRPRPKCVPRP, the “shrunken log2 fold change” value came to 0.52. The result for RRIRNRPPRLPRPRPRPWWIPRP reads -0.00145; that for RRIRQRPPRLPRPRPRPYNMPRP, -0.316. Consider RRIRPRPPRLPRPRPRPEFDPRP, for which the “shrunken log2 fold change” value worked out at 0.33. The value for RRIRDRPPRLPRPRPRPKWEPRP was 0.104. Regarding RRIRQRPPRLPRPRPRPQQGPRP, the “shrunken log2 fold change” value was -0.147.

As for RRIRIRPPRLPRPRPRPMMNPRP, the “shrunken log2 fold change” value was -0.442. Take RRIRTRPPRLPRPRPRPDKHPRP: the “shrunken log2 fold change” value is -0.551. The value for RRIRVRPPRLPRPRPRPKEWPRP was 0.146; that for RRIRMRPPRLPRPRPRPDRGPRP was 0.367; that for RRIRCRPPRLPRPRPRPITKPRP was -0.297. The result for RRIRRRPPRLPRPRPRPFTEPRP reads -0.267; that for RRIRCRPPRLPRPRPRPEVSPRP, 0.282; that for RRIRVRPPRLPRPRPRPQCRPRP, -0.167. As for RRIRCRPPRLPRPRPRPPSFPRP, the “shrunken log2 fold change” value amounted to 0.175.

As to RRIRERPPRLPRPRPRPERYPRP, the “shrunken log2 fold change” value is -0.162. The value for RRIRYRPPRLPRPRPRPPLHPRP was -0.455. The result for RRIRFRPPRLPRPRPRPSFAPRP reads -0.156.

RRIRPRPPRLPRPRPRPLGWPRP: the “shrunken log2 fold change” value came out at 0.442.

Turning to RRIRVRPPRLPRPRPRPIINPRP, the “shrunken log2 fold change” value is -0.644. Consider RRIRCRPPRLPRPRPRPSQMPRP, for which the “shrunken log2 fold change” value is -0.278.

RRIRSRPPRLPRPRPRPNDNPRP: the “shrunken log2 fold change” value was -0.57. The value for RRIRIRPPRLPRPRPRPAHIPRP was -0.063; that for RRIRMRPPRLPRPRPRPTYTPRP was -0.173.

As for RRIRMRPPRLPRPRPRPDMWPRP, the “shrunken log2 fold change” value stood at 0.805. The value for RRIRGRPPRLPRPRPRPDDEPRP was 1.27; that for RRIRKRPPRLPRPRPRPSSKPRP was -0.181.

For RRIRTRPPRLPRPRPRPLYWPRP, the “shrunken log2 fold change” value was -0.559.

In the case of RRIRMRPPRLPRPRPRPKYSPRP, the “shrunken log2 fold change” value is -0.326.

In the case of RRIRHRPPRLPRPRPRPQKKPRP, the “shrunken log2 fold change” value is -0.421. The value for RRIRDRPPRLPRPRPRPIDTPRP was -0.3; that for RRIRARPPRLPRPRPRPTWEPRP was 1.02; that for RRIRKRPPRLPRPRPRPNHPPRP was 0.0844.

In the case of RRIRIRPPRLPRPRPRPEIRPRP, the “shrunken log2 fold change” value was -0.0172. The result for RRIRMRPPRLPRPRPRPYINPRP reads -0.574; that for RRIRLRPPRLPRPRPRPKNQPRP, -0.202; that for RRIRFRPPRLPRPRPRPNSAPRP, -0.603.

With RRIRKRPPRLPRPRPRPILRPRP, the “shrunken log2 fold change” value is -0.0475. The result for RRIRARPPRLPRPRPRPQNWPRP reads 0.315; that for RRIRMRPPRLPRPRPRPCLAPRP, 0.215. The value for RRIRHRPPRLPRPRPRPFVDPRP was 0.268; that for RRIRPRPPRLPRPRPRPSLTPRP was -0.22. As to RRIRIRPPRLPRPRPRPTAGPRP, the “shrunken log2 fold change” value was -0.167. The result for RRIRFRPPRLPRPRPRPQSHPRP reads -0.243.

In the case of RRIRVRPPRLPRPRPRPMPIPRP, the “shrunken log2 fold change” value is 0.055. With RRIRFRPPRLPRPRPRPDHMPRP, the “shrunken log2 fold change” value was -0.585.

As to RRIRMRPPRLPRPRPRPQKTPRP, the “shrunken log2 fold change” value was -0.0249. The result for RRIRLRPPRLPRPRPRPVNPPRP reads 0.0818; that for RRIRVRPPRLPRPRPRPFWVPRP, 0.421. As to RRIRDRPPRLPRPRPRPIGSPRP, the “shrunken log2 fold change” value was -0.693.

In the case of RRIRWRPPRLPRPRPRPVQHPRP, the “shrunken log2 fold change” value amounted to 0.136.
